Molecular target: T1, KRAS G12V peptide on HLA-A*11 (human)
T1 peptide: VVGAVGVGK
Test: cytokine release

B1: CR-KVA11-N03 (TCR, V domains shown)
Valpha: RKEVEQDPGPFNVPEGATVAFNCTYSNSASQSFFWYRQDCRKEPKLLMSVYSSGNEDGRFTAQLNRASQYISLLIRDSKLSDSATYLCVVPGGTGGGNKLTFGTGTQLKVEL
Vbeta: DTAVSQTPKYLVTQMGNDKSIKCEQNLGHDTMDWYKQDSKKFLKIMFSYNNKELIINETVPNRFSPKSPDKAHLNLHINSLELGDSAVYFCASSHWGAQETQYFGPGTRLLVL
B1: recognises.
